Test results taken from patent CN117843776A.

Biological target: IL-17RA and IL-17RC co-expressed on 293F-IL-17RA-IL-17Rc-ACT1-NFκB-Luc reporter cells (Homo sapiens (Human)) (UniProt Q96F46)
Experiment: FACS, IL-17A recombinant protein on 293F-IL-17RA-IL-17Rc-ACT1-NFκB-Luc cells

Chain of UniProt Q96F46 (Q96F46 33-866 limits assumed, chain 1 of 2): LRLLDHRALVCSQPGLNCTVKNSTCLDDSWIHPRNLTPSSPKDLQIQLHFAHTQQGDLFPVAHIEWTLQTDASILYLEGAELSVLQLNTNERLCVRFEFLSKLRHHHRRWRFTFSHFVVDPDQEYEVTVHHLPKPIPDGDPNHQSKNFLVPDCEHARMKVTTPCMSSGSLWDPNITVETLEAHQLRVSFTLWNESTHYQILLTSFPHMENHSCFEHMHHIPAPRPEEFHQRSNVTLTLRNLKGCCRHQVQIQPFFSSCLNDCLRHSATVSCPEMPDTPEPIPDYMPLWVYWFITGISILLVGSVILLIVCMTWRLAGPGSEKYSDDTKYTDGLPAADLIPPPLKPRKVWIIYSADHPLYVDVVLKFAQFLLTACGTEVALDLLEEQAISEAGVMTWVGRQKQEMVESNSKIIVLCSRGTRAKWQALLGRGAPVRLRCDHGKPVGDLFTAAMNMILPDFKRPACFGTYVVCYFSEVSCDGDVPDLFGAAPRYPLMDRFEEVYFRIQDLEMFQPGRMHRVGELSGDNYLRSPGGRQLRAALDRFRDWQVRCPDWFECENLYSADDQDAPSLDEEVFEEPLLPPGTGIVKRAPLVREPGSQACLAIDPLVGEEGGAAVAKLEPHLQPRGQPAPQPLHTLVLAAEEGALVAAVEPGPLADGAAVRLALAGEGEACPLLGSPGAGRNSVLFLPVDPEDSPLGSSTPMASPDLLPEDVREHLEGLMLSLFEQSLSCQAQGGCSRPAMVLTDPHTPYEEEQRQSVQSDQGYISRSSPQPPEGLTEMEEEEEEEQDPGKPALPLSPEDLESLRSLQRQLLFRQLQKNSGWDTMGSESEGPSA
Chain of UniProt Q96F46 (chain, as listed by the source limits assumed, chain 2 of 2): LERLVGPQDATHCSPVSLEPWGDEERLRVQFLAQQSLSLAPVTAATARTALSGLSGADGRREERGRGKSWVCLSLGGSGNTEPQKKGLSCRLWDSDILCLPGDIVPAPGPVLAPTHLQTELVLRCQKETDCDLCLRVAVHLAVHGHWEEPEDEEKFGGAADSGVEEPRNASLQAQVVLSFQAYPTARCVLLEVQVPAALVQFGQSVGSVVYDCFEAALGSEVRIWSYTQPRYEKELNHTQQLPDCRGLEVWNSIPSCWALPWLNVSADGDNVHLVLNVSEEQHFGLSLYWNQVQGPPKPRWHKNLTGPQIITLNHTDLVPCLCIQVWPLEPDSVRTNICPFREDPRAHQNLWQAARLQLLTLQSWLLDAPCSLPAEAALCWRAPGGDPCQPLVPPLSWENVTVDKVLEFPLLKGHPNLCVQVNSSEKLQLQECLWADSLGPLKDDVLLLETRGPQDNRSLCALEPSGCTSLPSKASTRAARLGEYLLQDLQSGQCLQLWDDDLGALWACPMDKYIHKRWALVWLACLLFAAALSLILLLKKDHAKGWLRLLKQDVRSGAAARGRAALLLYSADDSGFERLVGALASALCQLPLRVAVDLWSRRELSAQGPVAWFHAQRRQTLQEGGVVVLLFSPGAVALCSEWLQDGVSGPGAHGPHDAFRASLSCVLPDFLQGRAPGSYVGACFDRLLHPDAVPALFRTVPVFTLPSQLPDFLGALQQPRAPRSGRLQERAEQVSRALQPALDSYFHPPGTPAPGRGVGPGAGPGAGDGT

阳性率: > 90 %
Substance: Human IL-17A重组蛋白 (C-terminal 6xHis) (from UniProt Q16552 24-155) (ligand)
